{"source": "paper PMC11879458", "binders": {"B1": {"name": "FAM-dsRNA 21 bp (dsRNA)", "RNA 1": "AAGGAUUACUGUAGUUUUCGC", "RNA 2": "GCGAAAACUACAGUAAUCCUU"}}, "assay_in_all_cases": "EMSA", "key": {"ADR-2": {"molecular_target": "ADR-2 (Caenorhabditis elegans, UniProt Q22618 1-495)"}, "[1]": {"molecular_target": "ADR-2 (ΔdsRBD);ADBP-1 (Δ1-66 aa) (Caenorhabditis elegans;Caenorhabditis …, UniProt Q22618;G5EDW1 1-35+106-495;67-217, internal_change|del1-66)"}, "ADR-2;ADBP-1": {"molecular_target": "ADR-2;ADBP-1 (Caenorhabditis elegans;Caenorhabditis …, UniProt Q22618;G5EDW1 1-495;1-217, |)"}}, "data": [{"binder": "B1", "values": [{"measurement": "binding result", "setting": "ADR-2", "result": "binds"}, {"measurement": "binding result", "setting": "[1]", "result": "no binding"}, {"measurement": "binding result", "setting": "ADR-2;ADBP-1", "result": "binds"}]}]}
